Measurements: patent US20160251440A1 (Ablynx, published 2016)

Key:
[1] = target: human CXCR4 (on cells, viral lipoparticles or membrane extracts) (human, UniProt P61073 1-352); test: cell-based or functional assay
[2] = target: T1, recombinant IL-3Rα ectodomain (human, UniProt P26951 19-305); test: ELISA on recombinant IL-3Ra ectodomain (lower right panel)
T1 construct: extracellular domain; also called recombinant IL-3Ra; biotinylated-IL-3Rα ectodomain
T1 sequence (looked up): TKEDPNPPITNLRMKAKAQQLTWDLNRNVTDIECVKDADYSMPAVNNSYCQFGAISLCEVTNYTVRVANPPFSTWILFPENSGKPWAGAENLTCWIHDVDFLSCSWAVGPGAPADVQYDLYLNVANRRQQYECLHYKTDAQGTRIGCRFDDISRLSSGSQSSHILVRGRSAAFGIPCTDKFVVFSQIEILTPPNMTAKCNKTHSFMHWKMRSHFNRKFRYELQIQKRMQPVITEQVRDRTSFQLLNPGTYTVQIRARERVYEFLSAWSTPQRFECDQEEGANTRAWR

[3] = target: T1, recombinant IL-3Rα ectodomain; test: SPR ProteOn, immobilised IL-3Rα ectodomain
[4] = target: T2, human IL-3Rα (CD123), cell-expressed (human, UniProt P26951 19-378); test: FACS, MOLM-13 cells
T2 construct: whole, on cells; also called IL-3Ra; Hek-IL-3Rα
T2 sequence (P26951 19-378): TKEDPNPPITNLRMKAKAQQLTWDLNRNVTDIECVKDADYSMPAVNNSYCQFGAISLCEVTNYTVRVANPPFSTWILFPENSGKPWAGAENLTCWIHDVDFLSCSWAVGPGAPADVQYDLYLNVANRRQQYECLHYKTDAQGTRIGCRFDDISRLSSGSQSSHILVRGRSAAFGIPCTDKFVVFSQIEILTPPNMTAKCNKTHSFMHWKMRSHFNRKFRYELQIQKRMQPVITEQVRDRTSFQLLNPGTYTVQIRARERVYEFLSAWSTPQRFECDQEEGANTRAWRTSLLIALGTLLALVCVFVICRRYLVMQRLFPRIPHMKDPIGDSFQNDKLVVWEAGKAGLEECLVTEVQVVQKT

[5] = target: T2, human IL-3Rα (CD123), cell-expressed; test: flow cytometry on Molm-13 cells; EC50(M) printed in the legend box beside the curves
[6] = target: T3, human IL12Rβ1, cell-expressed (human, UniProt P42701 24-662); test: flow cytometry on isolated CD8+ T cells of donor D863, anti-Flag detection
T3 construct: whole, on cells; in the context of the heterodimeric receptor; also called IL12Rb1

[7] = target: CXCR4 and CD4 co-expressed on cells (MOLM-13, THP-1, MT-4, PBMC; Jurkat CD4 low) (human, UniProt P61073 1-352; P01730 26-458); test: cell-based or functional assay
Sequence of CXCR4 and CD4 co-expressed on cells (MOLM-13, THP-1, MT-4, PBMC; Jurkat CD4 low) (P61073 whole entry, chain 1 of 2, other chains not shown): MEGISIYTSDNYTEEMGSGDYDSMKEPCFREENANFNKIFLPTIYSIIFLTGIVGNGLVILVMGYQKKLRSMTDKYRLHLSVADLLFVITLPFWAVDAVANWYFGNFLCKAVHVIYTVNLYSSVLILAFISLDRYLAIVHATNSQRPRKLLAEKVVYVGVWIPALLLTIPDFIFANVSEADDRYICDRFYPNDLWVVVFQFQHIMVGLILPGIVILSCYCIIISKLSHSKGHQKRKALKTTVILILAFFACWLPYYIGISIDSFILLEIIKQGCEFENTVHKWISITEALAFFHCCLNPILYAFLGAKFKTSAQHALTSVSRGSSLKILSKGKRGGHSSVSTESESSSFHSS

[8] = target: T4, recombinant human CEACAM5 (human, UniProt P06731 35-685); test: SPR Biacore T100, immobilised hCEACAM-5
T4 construct: also called hCEACAM-5; R&D Systems 4128-CM
T4 sequence (looked up): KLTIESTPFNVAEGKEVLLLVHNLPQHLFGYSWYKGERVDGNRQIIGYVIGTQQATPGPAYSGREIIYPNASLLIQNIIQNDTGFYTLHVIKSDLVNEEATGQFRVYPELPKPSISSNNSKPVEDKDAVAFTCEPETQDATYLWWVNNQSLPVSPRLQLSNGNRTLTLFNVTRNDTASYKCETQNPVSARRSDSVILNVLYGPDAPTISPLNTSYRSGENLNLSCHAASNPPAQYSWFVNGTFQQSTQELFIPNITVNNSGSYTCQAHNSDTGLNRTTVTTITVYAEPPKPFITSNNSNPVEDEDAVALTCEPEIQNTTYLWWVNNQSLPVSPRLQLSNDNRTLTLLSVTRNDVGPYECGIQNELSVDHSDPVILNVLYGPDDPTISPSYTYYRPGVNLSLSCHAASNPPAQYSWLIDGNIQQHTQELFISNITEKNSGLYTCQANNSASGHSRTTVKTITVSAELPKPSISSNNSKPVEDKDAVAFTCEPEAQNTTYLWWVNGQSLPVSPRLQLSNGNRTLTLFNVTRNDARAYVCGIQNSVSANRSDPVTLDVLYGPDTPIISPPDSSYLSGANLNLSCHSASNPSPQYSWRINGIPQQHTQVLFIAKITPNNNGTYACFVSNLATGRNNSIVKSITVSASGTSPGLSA

Sequence of human CXCR4 (on cells, viral lipoparticles or membrane extracts) (P61073 whole entry, the tested form may be a part): as the sequence (P61073 whole entry, chain 1 of 2, other chains not shown) above

B1: 14D09-35GS-57A07 (bispecific antibody)
chain: EVQLVESGGGLVQAGGSLRLSCVASGISSSKRNMGWYRQAPGKQRESVATISSGGNKDYTDAVKDRFTISRDTTKNTVYLQMNSLKPEDTAVYYCKIEAGTGWATRRGYTYWGQGTLVTVSSGGGGSGGGGSGGGGSGGGGSGGGGSGGGGSGGGGSEVQLVESGGGLVQAGGSLRLSCAASGSIFSGNVMGWYRRQAPGKEREWVAAIASGGSIYYRDSVKGRFTISRDNAKNTVYLQMNSLKPEDTAVYYCNSHPPTLPYWGQGTLVTVSS
notes: also made with FLAG3-His6 in Pichia; also called CXCR4#1-CD123#1; 14D09-57A07
[1]
  Fold inc. vs CXCR4#1, Jurkat E6-1: 0.69 fold
  Fold inc. vs CXCR4#1, MOLM-13: 2.39 fold
  IC50, CXCL-12 chemotaxis, Jurkat E6-1: 15 nM
  IC50, CXCL-12 chemotaxis, MOLM-13: 3.6 nM
[2]
  EC50 (read off the curve): ~0.5 nM

B2: 51D09 (VHH)
VHH: EVQLVESGGGLVQPGGSLRLSCAASGSIFSGNTMGWYRQAPGKQRELVAAISSGGSTDYADSVKGRFTISRDNSKNTVYLQMNSLRPEDTAVYYCNAAILLYRLYGYEEGDYWGLGTLVTVSS
[3]
  Kd: 13.6 nM
  koff: 0.000516 s⁻¹
  kon: 37800 M⁻¹ s⁻¹
[4]
  EC50: 15.3 nM
[5]
  EC50: 16 nM

B3: 55F03 (VHH)
VHH: EVQLVESGGGLVQAGGPLRLSCAASGRTFSSYVMGWFRQAPGKEREFVAAIYWSNGKTQYTDSVKGRFTISGDNAKNTVYLQMNSLNPEDTAVYYCVADKDETGFRTLPIAYDYWGLGTQVTVSS
[3]
  Kd: 115 nM
  koff: 0.00487 s⁻¹
  kon: 42500 M⁻¹ s⁻¹
[4]
  EC50: 113 nM
[5]
  EC50: 350 nM

B4: cAbLys3 (VHH)
VHH: DVQLQASGGGSVQAGGSLRLSCAASGYTIGPYCMGWFRQAPGKEREGVAAINMGGGITYYADSVKGRFTISQDNAKNTVYLLMNSLEPEDTAIYYCAADSTIYASYYECGHGLSTGGYGYDSWGQGTQVTVSS
notes: also called irrelevant control Nanobody directed to lysozyme
[6]
  binding result: no binding (tested: 250 nM)

B5: 03F11-9GS-281F12 (bispecific antibody)
chain: EVQLVESGGGSVQPGGSLTLSCGTSGRTFNVMGWFRQAPGKEREFVAAVRWSSTGIYYTQYADSVKSRFTISRDNAKNTVYLEMNSLKPEDTAVYYCAADTYNSNPARWDGYDFRGQGTQVTVSSGGGGSGGGGSEVQLVESGGGLVQAGDSLRLSCAASGRAFSRYAMGWFRQAPGKEREFVAAIGWGPSKTNYADSVKGRFTISRDNAKNTVYLQMNTLKPEDTAVYSCAAKFVNTDSTWSRSEMYTYWGQGTQVTVSS
[7]
  IC50, HIV-1 BaL (R5), PBMC: > 666 nM
  IC50, HIV-1 NL4.3 (X4), MT-4: 14.9 nM
  IC50, HIV-1 NL4.3 (X4), PBMC: 17 nM
  IC50, HIV-1 NL4.3 (X4), U87: > 3330 nM

B6: CEA#2 (VHH)
VHH: EVQLVESGGGLVQPGGSLRLSCAASGDTYGSYWMGWFRQAPGQGLEAVAAINRGGGYTVYADSVKGRFTISRDNSKNTLYLQMNSLRAEDTAVYYCAASGVLGGLHEDWFNYWGQGTLVTVSS
notes: also called T023200002; humanised variant of NbCEA5
[8]
  Kd: 1.9 nM
  koff: 0.0025 s⁻¹
  kon: 1.3e+06 M⁻¹ s⁻¹

B7: 57A07-35GS-14D09 (bispecific antibody)
chain: EVQLVESGGGLVQAGGSLRLSCAASGSIFSGNVMGWYRRQAPGKEREWVAAIASGGSIYYRDSVKGRFTISRDNAKNTVYLQMNSLKPEDTAVYYCNSHPPTLPYWGQGTLVTVSSGGGGSGGGGSGGGGSGGGGSGGGGSGGGGSGGGGSEVQLVESGGGLVQAGGSLRLSCVASGISSSKRNMGWYRQAPGKQRESVATISSGGNKDYTDAVKDRFTISRDTTKNTVYLQMNSLKPEDTAVYYCKIEAGTGWATRRGYTYWGQGTLVTVSS
notes: FLAG3-His6 also made; also called CD123#1-CXCR4#1; 57A07-14D09
[1]
  Fold inc. vs CXCR4#1, Jurkat E6-1: 0.05 fold
  IC50, CXCL-12 chemotaxis, Jurkat E6-1: 210 nM
[2]
  EC50 (read off the curve): ~0.5 nM

B8: 03F11-25GS-281F12 (bispecific antibody)
chain: EVQLVESGGGSVQPGGSLTLSCGTSGRTFNVMGWFRQAPGKEREFVAAVRWSSTGIYYTQYADSVKSRFTISRDNAKNTVYLEMNSLKPEDTAVYYCAADTYNSNPARWDGYDFRGQGTQVTVSSGGGGSGGGGSGGGGSGGGGSGGGGSEVQLVESGGGLVQAGDSLRLSCAASGRAFSRYAMGWFRQAPGKEREFVAAIGWGPSKTNYADSVKGRFTISRDNAKNTVYLQMNTLKPEDTAVYSCAAKFVNTDSTWSRSEMYTYWGQGTQVTVSS
[7]
  IC50, HIV-1 BaL (R5), PBMC: 383 nM
  IC50, HIV-1 NL4.3 (X4), MT-4: 9.22 nM
  IC50, HIV-1 NL4.3 (X4), PBMC: 8.67 nM
  IC50, HIV-1 NL4.3 (X4), U87: > 3330 nM
